# According to US20230257435A1, “Wound Healing Composition and Uses Thereof” (AGENCY FOR SCIENCE, TECHNOLOGY AND RESEARCH, priority 2020, published 2023):
# Tests used:
# [1] = tested on: mouse skin punch wounds; assay: Punch-biopsy wound healing model, non-splinted; type: in vivo
# Protocol: Six to eight to week old female experimental ICR (nomenclature: IcrTac:ICR) mice purchased from InVivos were used for punch-biopsy wound healing in vivo assays. In the ex-vivo mouse skin explant assay, random ratios of male and female new born ICR mouse pups were used. Wherever possible, the experiments were performed taking into consideration an ethical and reductionist approach of animal usage. Animal studies were not performed in a blinded fashion. The animals were randomly assigned to different experimental groups. The number of animals used for each experiment is indicated in the legend as n=x mice per group. All animal experiments performed were done in accordance with experimental protocols reviewed by the Biological Resource Center (BRC), Agency for Science Technology and Research (A*STAR) under strict compliance to the Institutional Animal Care and Use Committee (IACUC) guidelines for ethical use of animal models in biological research.
# The mice were housed under standard conditions of 21° C. and a 12 h light-dark cycle with free access to food. Subsequently, the mice were intraperitoneally (i.p.) anesthezised using Ketamine 100 mg/kg and Xylazin 10 mg/kg diluted in […] of saline solution. The fur was shaved from the base of the neck towards the back on the entire shoulder region. The skin was wiped with an alcohol swab and 10% povidone-iodine (Betadine) antiseptic solution. Circular symmetrical 4 mm wounds were inflicted on either side of the midline in the shoulder region using a sterile 4 mm punch biopsy needle (Integra Miltex, Integra York, P.A., Inc.). The wound skin was carefully removed using a scalpel and a pair of scissors to generate a full-thickness wound that were left open for topical administrations during the analysed time periods. For splinted wound healing models, a 10 mm transparent donut shaped nylon sheet (Grace Bio-Laboratories, Bend, Oreg.) was placed around the 4 mm wound. The splint was placed with the wound at the center, glued to the skin by adhesive (Krazy Glue®; Elmer's Inc.), and covered by Tegaderm dressing. The wounds were treated with different formulations based on either petroleum jelly (Vaseline), a thermoresponsive hydrogel (Pluronic F127-Sigma) or a commercially available skin ointment (Aquaphore-Beiersdorf, Inc.). For Vaseline based ointment cream preparation, 10 mg per cm^2 vaseline ointment was mixed with filtered PBS solutions containing the indicated amounts of Agrin (100 μg, 200 μg or 500 μg) and 100 μg BSA (w/w) were used and applied topically every two days. For siRNA mediated knockdown experiments, 75 nM of indicated siRNAs were incubated with lipofectamine in PBS. Subsequently, a 1:1 mixture of PBS (containing the siRNAs): Aquaphore was applied topically on the wound region every two days. A topical formulation comprising of 20% (w/w) Pluronic F127 (Sigma) was used to dissolve in sterile and 0.22μ filtered solution containing a final concentration of 200 μg/ml sAgrin or BSA. This mixture was dissolved overnight at 4° C. to ensure that liquid phase is achieved. The mixture forms a homogenous gel at temperatures above ˜20° C. and was dispersed topically to cover the wound. Wound closure was assessed using a Vernier caliper every alternate day. For both models, the animals were caged individually throughout the observed time-points of healing at the institutional animal facility. All wound healing animal experiments performed were done in accordance with experimental protocols reviewed by the Biological Resource Center (BRC), Agency for Science Technology and Research (A*STAR) under strict compliance to the Institutional Animal Care and Use Committee (IACUC) guidelines for ethical use of animal models in biological research.
# Human skin equivalents and mice skin tissues were harvested, embedded, and subjected to routine histology using Hematoxylin and Eosin. For immunostaining, the tissues were fixed for 24 h in 10% neutral buffered formalin solution. […]
# [2] = tested on: MMP12; assay: MMP12 levels in HaCaT cells (Western blot / immunostaining); type: cell-based, human
# Protocol: Tissue culture plates were coated with Col-T-gel (Fischer Scientific) of stiffness ranging from 0.8 KPa (soft) to 30 KPa (stiff) as per manufacturer recommendations and allowed to solidify for 40 min at 37° C. inside tissue culture incubators. Some experiments were performed with cells seeded on the poly-hydrogel plates of defined stiffness: 0.2 kPa and 16 kPa soft and hard polyhydrogels, respectively (CytoSoft, Advanced Biomatrix, Inc.,). The determination of stiffness of silicone substrates were done by the manufacturer as per previously published protocols. For certain experiments, indicated amounts of sAgrin was incorporated into the 0.8 KPa collagen gels before gelation process. Upon gelation, trypsinized cells or excised mouse skin explants were plated onto the gels of different stiffness either alone or containing sAgrin. The cells/tissues were incubated under standard culture condition with 500 μl recommended culture medium for the indicated days. The crossbow shaped micropatterns with fibronectin coated islands were generated by microlithography on a 19.5×19.5 mm coverslide from Cytoo, Inc., France. The micropatterns had surface areas of 800μ^2 or 1600μ^2, respectively. Fifty thousand cells after initial siRNA treatment was placed on the micropatterns for 4-6 h before processing them for immunofluorescence. For some experiments, 10 μg/ml sAgrin was added on the slides 18 h prior to the addition of cells.
# Indicated cells post-manipulation were washed twice with cold Phosphate buffered saline (PBS) and lysed with cold 1% NP-40 lysis buffer supplemented with 1× protease inhibitor cocktail (Roche Applied Biosciences) for 15 mins at 4° C. The cell lysate was centrifuged at 13,000 rpm for 15 min. This was followed by protein estimation using Bradford reagent. Subsequently, […] of total protein was mixed with an equal volume of 2× Laemmli sample buffer and heated at 95° C. for 5 mins. This was followed by resolution with SDS-PAGE gel. The resolved proteins were transferred onto nitrocellulose membrane and blocked in 5% skimmed milk reconstituted in 1×PBS containing 0.1% Tween-20, and probed overnight with the respective primary antibody. The membrane was then washed with 1×PBS supplemented with 0.1% Tween-20: three times at 15 min intervals. This was followed by 1 h incubation in conjugated horseradish peroxidase HRP secondary antibody (Santa Cruz Biotechnology). […] The density of the various bands was quantified using the Image-J software.
# Cells were cultured on eight-well chamber slides or coverslips over-night. […] The images were processed and analyzed by Zen blue software. […]
molecule,measurement,setting,value
"sAgrin: C-terminus recombinant Agrin fragment containing 8 amino acid 'Z8' insert and LG3 domain (SEQ ID NO: 7), His-tagged, expressed in E. coli (protein, His tag) DTLAFDGRTFVEYLNAVTESELANEIPVEKALQSNHFELSLRTEATQGLVLWSGKATERADYVALAIVDGHLQLSYNLGSQPVVLRSTVPVNTNRWLRVVAHREQREGSLQVGNEAPVTGSSPLGATQLDTDGALWLGGLPELPVGPALPKAYGTGFVGCLRDVVVGRHPLHLLEDAVTKPELRPCPTP",migratory epithelial tongue from wound edges,[1]; day 2,significant extension of the migratory epithelial tongue
same,"K17 outgrowth, MMP12 expression and pMLC activation","[1]; day 2, wound edges and beds","robust K17 expressing keratinocyte outgrowth, MMP12 expression and pMLC activation"
same,angiogenesis (blood vessel number and diameter),[1]; day 6,steady enhancement in angiogenesis with an increased number of blood vessels and their respective diameters
same,Ki67+ve proliferating cells,[1]; day 7 post-injury,enhancement of Ki67+ve proliferating cells
same,"rates of wound healing, Pluronic F-127 hydrogel",[1]; sAgrin 200 μg vs control hydrogel,significantly boosted the rates of wound healing in vivo
same,"healing rates of punch wounds, Vaseline ointment","[1]; sAgrin 100, 200 or 500 μg in Vaseline vs BSA",significantly accelerated the healing rates of mice punch wounds in a dose-dependent fashion
same,"MMP12 levels on soft matrix, exposure time series",[2]; 10 μg/ml sAgrin,increased MMP12 levels
same,"MMP12 protein levels on soft substrates, concentration series","[2]; 0.8 kPa, increasing sAgrin, 18 h",strongly stabilized MMP12 protein levels in a dose-dependent fashion
same,MMP12 and Agrin at the leading migrating front,"[2]; 6 h post-wound scratch, sAgrin 10 μg/ml",further heightened
same,MMP12 levels in Agrin knockdown cells on stiff ECM,"[2]; increasing sAgrin, 18 h, dose-dependent",restored their MMP12 levels
